# Measurements as given in US20110280881A1, “NOVEL ANTI-HSP90 MONOCLONAL ANTIBODY” (RIKEN, priority 2010, published 2011).
# B1: IL-10: cytokine (protein, UniProt P22301 19-178, looked up)
# Interleukin-10: SPGQGTQSENSCTHFPGNLPNMLRDLRDAFSRVKTFFQMKDQLDNLLLKESLLEDFKGYLGCQALSEMIQFYLEEVMPQAENQDPDIKAHVNSLGENLKTLRLRLRRCHRFLPCENKSKAVEQVKNAFNKLQEKGIYKAMSEFDIFINYIEAYMTMKIRN
# B2: IL-4: cytokine (protein, UniProt P05112 25-153, looked up)
# Interleukin-4: HKCDITLQEIIKTLNSLTEQKTLCTELTVTDIFAASKNTTEKETFCRAATVLRQFYSHHEKDTRCLGATAQQFHRHKQLIRFLKRLDRNLWGLAGLNSCPVKEANQSTLENFLERLKTIMREKYSKCSS
# B3: IL-23: cytokine (protein, UniProt Q9NPF7 20-189; P29460 23-328, looked up)
# Interleukin-23 subunit alpha: RAVPGGSSPAWTQCQQLSQKLCTLAWSAHPLVGHMDLREEGDEETTNDVPHIQCGDGCDPQGLRDNSQFCLQRIHQGLIFYEKLLGSDIFTGEPSLLPDSPVGQLHASLLGLSQLLQPEGHHWETQQIPSLSPSQPWQRLLLRFKILRSLQAFVAVAARVFAHGAATLSP
# Interleukin-12 subunit beta: IWELKKDVYVVELDWYPDAPGEMVVLTCDTPEEDGITWTLDQSSEVLGSGKTLTIQVKEFGDAGQYTCHKGGEVLSHSLLLLHKKEDGIWSTDILKDQKEPKNKTFLRCEAKNYSGRFTCWWLTTISTDLTFSVKSSRGSSDPQGVTCGAATLSAERVRGDNKEYEYSVECQEDSACPAAEESLPIEVMVDAVHKLKYENYTSSFFIRDIIKPDPPKNLQLKPLKNSRQVEVSWEYPDTWSTPHSYFSLTFCVQVQGKSKREKKDRVFTDKTSATVICRKNASISVRAQDRYYSSSWSEWASVPCS
# Tested on: DC2.4 cells and mouse GM-CSF-dependent BMDC
# Experiment: Influence of cytokines on expression of cell surface HSP90 (FACS with 6H8)
# Assay type: cell-based
# Conditions: BMDC, cytokines 100 ng/ml or 10 ng/ml
# Procedure: In view of the possibility that cytokines are variation factors for the expression of cell surface HSP90, the influences of various cytokines on the expression of cell surface HSP90 were examined as described below.
# The solid bars indicate the MFI for BMDC incubated in the presence of high concentrations of IFNs (as in FIG. 5B) or other cytokines (100 ng/ml); the grey bars indicate the MFI for BMDC incubated in the presence of low concentrations of IFNs (as in FIG. 5B) or other cytokines (10 ng/ml). The open bars indicate the MFI for BMDC incubated in the absence of the cytokines as negative controls.
row,Molecule,MFI of cell surface HSP90 after cytokine treatment versus negative control
1,B1,no significant difference from the negative control
2,B2,no significant difference from the negative control
3,B3,no significant difference from the negative control
